Measured values taken from patent US20210290733A1, “INJECTABLE MICRONIZED HUMAN INSULIN” (ARVEN ILAC SANAYI VE TICARET ANONIM SIRKETI, priority 2018, published 2021).

Experiments:
[1] = Particle size measurement of human insulin before and after micronization; type: physicochemical
Method: According to one embodiment of the present invention, after micronization, the micronized human insulin has a d(0.1) particle size which is less than 5 μm or less than 3 μm or less than 2 μm.
According to one embodiment of the present invention, the micronized human insulin particles were prepared by using supercritical fluid process.

[2] = Bioactivity test (USP limit, USP 121 Insulin Assays); conditions: for Bioactivity: USP limit min. 15 IU/mg
Method: According to one embodiment of the present invention, the composition is prepared by based on USP 121 formula (The United States Pharmacopeial Convention 2015, [121] Insulin Assays). This is important in order to minimize the risk of adverse effects, both local and systemic. It is important that human insulin in the composition is used without extra excipients because, its amino acid sequence and biological activity are the same as those of the human body and are safe and have no toxic or side effects.

| Substance | d(0.1) particle size ([1]; After Micronization) [μm] | d(0.5) particle size ([1]; After Micronization) [μm] | d(0.9) particle size ([1]; After Micronization) [μm] | Bioactivity ([2]; After Micronization) [IU/mg] | Protein activity at the end of the micronization process (versus before) ([2]; without any change in protein structure) | d(0.1) particle size ([1]; Before Micronization) [μm] | d(0.5) particle size ([1]; Before Micronization) [μm] | d(0.9) particle size ([1]; Before Micronization) [μm] | Bioactivity ([2]; Before Micronization) [IU/mg] |
| --- | --- | --- | --- | --- | --- | --- | --- | --- | --- |
| micronized human insulin: recombinant, unmodified human insulin with particle size reduced by supercritical fluid (SAS) process | 1.654 | 5.273 | 12.54 | 34.72 | protein activity increased | – | – | – | – |
| human insulin: recombinant human insulin, unmodified primary structure, before micronization | – | – | – | – | – | 1.96 | 13.24 | 25.12 | 16.02 |
